# Laboratory results published in IntAct's records for PubMed 35512704.
# B1: Mothers against decapentaplegic homolog 4 (Homo sapiens), Q13485 (parent)
# chain: MDNMSITNTPTSNDACLSIVHSLMCHRQGGESETFAKRAIESLVKKLKEKKDELDSLITAITTNGAHPSKCVTIQRTLDGRLQVAGRKGFPHVIYARLWRWPDLHKNELKHVKYCQYAFDLKCDSVCVNPYHYERVVSPGIDLSGLTLQSNAPSSMMVKDEYVHDFEGQPSLSTEGHSIQTIQHPPSNRASTETYSTPALLAPSESNATSTANFPNIPVASTSQPASILGGSHSEGLLQIASGPQPGQQQNGFTGQPATYHHNSTTTWTGSRTAPYTPNLPHHQNGHLQHHPPMPPHPGHYWPVHNELAFQPPISNHPAPEYWCSIAYFEMDVQVGETFKVPSSCPIVTVDGYVDPSGGDRFCLGQLSNVHRTEAIERARLHIGKGVQLECKGEGDVWVRCLSDHAVFVQSYYLDREAGRAPGDAVHKIYPSAYIKVFDLRQCHRQMQQQAATAQAAAAAQAAAVAGNIPGPGSVGGIAPAISLSAAAGIGVDDLRRLCILRMSFVKGWGPDYPRQSIKETPCWIEIHLHRALQLLDEVLHTMPIADPQPLD
# partner: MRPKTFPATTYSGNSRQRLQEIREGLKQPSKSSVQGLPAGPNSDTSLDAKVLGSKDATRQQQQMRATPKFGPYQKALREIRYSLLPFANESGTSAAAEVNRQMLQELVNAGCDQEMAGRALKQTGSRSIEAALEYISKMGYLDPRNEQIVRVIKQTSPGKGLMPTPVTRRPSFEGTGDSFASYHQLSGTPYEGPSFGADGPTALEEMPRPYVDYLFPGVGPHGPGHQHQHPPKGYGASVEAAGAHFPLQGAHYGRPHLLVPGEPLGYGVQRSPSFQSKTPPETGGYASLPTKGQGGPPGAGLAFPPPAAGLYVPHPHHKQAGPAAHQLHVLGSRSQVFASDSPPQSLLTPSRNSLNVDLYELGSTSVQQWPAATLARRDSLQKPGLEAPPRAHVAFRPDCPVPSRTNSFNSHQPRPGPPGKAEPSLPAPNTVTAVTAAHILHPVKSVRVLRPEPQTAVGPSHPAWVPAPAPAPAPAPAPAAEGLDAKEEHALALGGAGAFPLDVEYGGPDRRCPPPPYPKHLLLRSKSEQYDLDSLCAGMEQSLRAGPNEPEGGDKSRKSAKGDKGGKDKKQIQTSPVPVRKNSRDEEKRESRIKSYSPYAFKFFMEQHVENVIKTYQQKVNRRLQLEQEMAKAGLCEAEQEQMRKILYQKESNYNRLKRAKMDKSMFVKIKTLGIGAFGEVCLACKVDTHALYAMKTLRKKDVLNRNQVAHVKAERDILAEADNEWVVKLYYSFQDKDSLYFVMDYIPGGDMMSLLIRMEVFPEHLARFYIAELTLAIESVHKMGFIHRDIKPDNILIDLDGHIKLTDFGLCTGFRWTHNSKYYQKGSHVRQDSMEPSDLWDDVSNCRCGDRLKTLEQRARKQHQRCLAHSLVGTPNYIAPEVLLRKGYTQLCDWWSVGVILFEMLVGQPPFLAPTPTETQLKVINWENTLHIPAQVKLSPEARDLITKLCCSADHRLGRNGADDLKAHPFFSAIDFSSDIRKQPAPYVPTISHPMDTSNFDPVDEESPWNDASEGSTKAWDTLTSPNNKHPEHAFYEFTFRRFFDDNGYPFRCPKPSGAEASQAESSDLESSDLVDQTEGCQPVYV
# B2: Mothers against decapentaplegic homolog 4 (Homo sapiens), Q13485 (parent)
# chain: B1 chain
# partner: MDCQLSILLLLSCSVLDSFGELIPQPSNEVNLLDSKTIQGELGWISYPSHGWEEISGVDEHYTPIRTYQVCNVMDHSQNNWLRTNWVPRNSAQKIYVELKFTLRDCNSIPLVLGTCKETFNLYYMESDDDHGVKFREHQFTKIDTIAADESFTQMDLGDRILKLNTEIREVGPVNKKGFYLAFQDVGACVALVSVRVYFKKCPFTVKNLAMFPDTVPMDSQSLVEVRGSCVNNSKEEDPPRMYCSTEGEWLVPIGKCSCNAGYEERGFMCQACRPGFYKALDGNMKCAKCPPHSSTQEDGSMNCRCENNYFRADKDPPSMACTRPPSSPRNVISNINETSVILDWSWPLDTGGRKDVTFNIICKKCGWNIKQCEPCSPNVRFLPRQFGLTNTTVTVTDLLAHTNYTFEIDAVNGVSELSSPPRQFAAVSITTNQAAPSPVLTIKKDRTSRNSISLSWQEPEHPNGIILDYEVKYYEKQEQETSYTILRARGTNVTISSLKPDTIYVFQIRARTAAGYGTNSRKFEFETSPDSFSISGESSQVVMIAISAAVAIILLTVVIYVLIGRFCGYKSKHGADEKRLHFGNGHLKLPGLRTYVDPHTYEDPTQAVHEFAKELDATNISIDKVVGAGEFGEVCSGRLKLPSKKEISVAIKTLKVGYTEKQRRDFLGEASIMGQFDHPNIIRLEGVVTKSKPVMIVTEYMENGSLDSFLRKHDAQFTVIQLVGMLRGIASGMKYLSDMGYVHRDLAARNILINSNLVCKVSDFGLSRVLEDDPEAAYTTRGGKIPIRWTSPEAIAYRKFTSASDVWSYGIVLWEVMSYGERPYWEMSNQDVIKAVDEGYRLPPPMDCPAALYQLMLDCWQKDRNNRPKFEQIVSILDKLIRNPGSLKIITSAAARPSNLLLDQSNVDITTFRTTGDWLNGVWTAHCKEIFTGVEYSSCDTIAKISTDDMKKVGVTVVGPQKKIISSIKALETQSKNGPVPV
# B3: Mothers against decapentaplegic homolog 4 (Homo sapiens), Q13485 (parent)
# chain: B1 chain
# partner: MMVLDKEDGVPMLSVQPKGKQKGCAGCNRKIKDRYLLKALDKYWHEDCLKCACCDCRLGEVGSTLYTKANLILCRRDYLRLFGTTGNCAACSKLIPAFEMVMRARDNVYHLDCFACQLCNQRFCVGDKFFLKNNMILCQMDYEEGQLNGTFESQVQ
# Variants of: B1
# Settings: with lats2_human LATS2, Q9NRM7
row,Variant,effect of a mutation on the interaction
1,D351H,with no effect

# Variants of: B1
# Settings: with lats2_human LATS2, Q9NRM7
# Remark: another data set of the same source
row,Variant,effect of a mutation on the interaction
1,R361C,with no effect

# Variants of: B1
# Settings: with lats2_human LATS2, Q9NRM7
# Remark: another data set of the same source
row,Variant,effect of a mutation on the interaction
1,R361H,with no effect

# Variants of: B2
# Settings: with epha3_human EPHA3, P29320
row,Variant,effect of a mutation on the interaction
1,G386D,with no effect

# Variants of: B2
# Settings: with epha3_human EPHA3, P29320
# Remark: another data set of the same source
row,Variant,effect of a mutation on the interaction
1,G386D,increasing interaction strength

# Variants of: B2
# Settings: with epha3_human EPHA3, P29320
# Remark: another data set of the same source
row,Variant,effect of a mutation on the interaction
1,D351H,with no effect

# Variants of: B2
# Settings: with epha3_human EPHA3, P29320
# Remark: another data set of the same source
row,Variant,effect of a mutation on the interaction
1,R361C,with no effect

# Variants of: B2
# Settings: with epha3_human EPHA3, P29320
# Remark: another data set of the same source
row,Variant,effect of a mutation on the interaction
1,R361H,with no effect

# Variants of: B3
# Settings: with rbtn1_human LMO1, P25800
row,Variant,effect of a mutation on the interaction
1,G386D,with no effect

# Variants of: B3
# Settings: with rbtn1_human LMO1, P25800
# Remark: another data set of the same source
row,Variant,effect of a mutation on the interaction
1,R361H,with no effect

# Variants of: B3
# Settings: with rbtn1_human LMO1, P25800
# Remark: another data set of the same source
row,Variant,effect of a mutation on the interaction
1,R361C,with no effect
